According to patent publication US20240024505:

Legend:
[1] = biological target: endogenous IGFBP-3 in human synovial fluid, P17936
[2] = biological target: recombinant IGFBP-3, P17936
recombinant IGFBP-3, P17936, sequence (P17936 28-291): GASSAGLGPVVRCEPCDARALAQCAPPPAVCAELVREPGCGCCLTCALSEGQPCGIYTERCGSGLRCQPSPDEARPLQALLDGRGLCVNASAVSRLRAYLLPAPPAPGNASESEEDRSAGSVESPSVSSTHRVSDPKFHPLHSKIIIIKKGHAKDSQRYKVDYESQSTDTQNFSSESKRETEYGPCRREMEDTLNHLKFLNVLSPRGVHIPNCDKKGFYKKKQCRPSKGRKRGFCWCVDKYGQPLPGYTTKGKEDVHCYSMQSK

endogenous IGFBP-3 in human synovial fluid, P17936, sequence (P17936 28-291): as above

B1: PAPPA2 from conditioned media (protein)
chain: PPEESNQNGGEGSYREAETFNSQVGLPILYFSGRRERLLLRPEVLAEIPREAFTVEAWVKPEGGQNNPAIIAGVFDNCSHTVSDKGWALGIRSGKDKGKRDARFFFSLCTDRVKKATILISHSRYQPGTWTHVAATYDGRHMALYVDGTQVASSLDQSGPLNSPFMASCRSLLLGGDSSEDGHYFRGHLGTLVFWSTALPQSHFQHSSQHSSGEEEATDLVLTASFEPVNTEWVPFRDEKYPRLEVLQGFEPEPEILSPLQPPLCGQTVCDNVELISQYNGYWPLRGEKVIRYQVVNICDDEGLNPIVSEEQIRLQHEALNEAFSRYNISWQLSVHQVHNSTLRHRVVLVNCEPSKIGNDHCDPECEHPLTGYDGGDCRLQGRCYSWNRRDGLCHVECNNMLNDFDDGDCCDPQVADVRKTCFDPDSPKRAYMSVKELKEALQLNSTHFLNIYFASSVREDLAGAATWPWDKDAVTHLGGIVLSPAYYGMPGHTDTMIHEVGHVLGLYHVFKGVSERESCNDPCKETVPSMETGDLCADTAPTPKSELCREPEPTSDTCGFTRFPGAPFTNYMSYTDDNCTDNFTPNQVARMHCYLDLVYQQWTESRKPTPIPIPPMVIGQTNKSLTIHWLPPISGVVYDRASGSLCGACTEDGTFRQYVHTASSRRVCDSSGYWTPEEAVGPPDVDQPCEPSLQAWSPEVHLYHMNMTVPCPTEGCSLELLFQHPVQADTLTLWVTSFFMESSQVLFDTEILLENKESVHLGPLDTFCDIPLTIKLHVDGKVSGVKVYTFDERIEIDAALLTSQPHSPLCSGCRPVRYQVLRDPPFASGLPVVVTHSHRKFTDVEVTPGQMYQYQVLAEAGGELGEASPPLNHIHGAPYCGDGKVSERLGEECDDGDLVSGDGCSKVCELEEGFNCVGEPSLCYMYEGDGICEPFERKTSIVDCGIYTPKGYLDQWATRAYSSHEDKKKCPVSLVTGEPHSLICTSYHPDLPNHRPLTGWFPCVASENETQDDRSEQPEGSLKKEDEVWLKVCFNRPGEARAIFIFLTTDGLVPGEHQQPTVTLYLTDVRGSNHSLGTYGLSCQHNPLIINVTHHQNVLFHHTTSVLLNFSSPRVGISAVALRTSSRIGLSAPSNCISEDEGQNHQGQSCIHRPCGKQDSCPSLLLDHADVVNCTSIGPGLMKCAITCQRGFALQASSGQYIRPMQKEILLTCSSGHWDQNVSCLPVDCGVPDPSLVNYANFSCSEGTKFLKRCSISCVPPAKLQGLSPWLTCLEDGLWSLPEVYCKLECDAPPIILNANLLLPHCLQDNHDVGTICKYECKPGYYVAESAEGKVRNKLLKIQCLEGGIWEQGSCIPVVCEPPPPVFEGMYECTNGFSLDSQCVLNCNQEREKLPILCTKEGLWTQEFKLCENLQGECPPPPSELNSVEYKCEQGYGIGAVCSPLCVIPPSDPVMLPENITADTLEHWMEPVKVQSIVCTGRRQWHPDPVLVHCIQSCEPFQADGWCDTINNRAYCHYDGGDCCSSTLSSKKVIPFAADCDLDECTCRDPKAEENQ
protease activity: intact IGFBP-3 in synovial fluid by ELISA [1]: Treatment of healthy or diseased human synovial fluid with conditioned media containing PAPPA2 results in a significant decrease in intact IGFBP-3
IGF-1 signaling (AP-1 driven bioluminescence) in the presence of IGFBP-3 [2]: Treatment with PAPPA2 allows for robust IGF-1 signaling in the modeled healthy and disease-state
protease activity: intact IGFBP-3 by ELISA [2]: PAPPA2 from conditioned media efficiently cleaves IGFBP-3, as measured by an ELISA for intact IGFBP-3, with and without bound IGF-1
